Bridges are numbered along the chain shown (N, C = ends). Where no end group is shown, it is not given here. [ ]: non-standard residue; d: D form.
B1: protegrin-4-like peptide 1 (peptide)
peptide: RGGRLCYCPH[dF]HWCFCVGR-NH2
modifications: disulfide 8-14, 6-16; N-terminus assumed
SMILES: CC(C)C[C@H](NC(=O)[C@H](CCCNC(=N)N)NC(=O)CNC(=O)CNC(=O)[C@@H](N)CCCNC(=N)N)C(=O)N[C@H]1CSSC[C@@H](C(=O)N[C@H](C(=O)NCC(=O)N[C@@H](CCCNC(=N)N)C(N)=O)C(C)C)NC(=O)[C@H](Cc2ccccc2)NC(=O)[C@@H]2CSSC[C@H](NC(=O)[C@H](Cc3ccc(O)cc3)NC1=O)C(=O)N1CCC[C@H]1C(=O)N[C@@H](Cc1c[nH]cn1)C(=O)N[C@H](Cc1ccccc1)C(=O)N[C@@H](Cc1c[nH]cn1)C(=O)N[C@@H](Cc1c[nH]c3ccccc13)C(=O)N2
B2: arenicin-3-like peptide 1 (peptide)
peptide: GFCWYVCPH[dF]HWCYRRCN-NH2
modifications: disulfide 7-13, 3-17; N-terminus assumed
SMILES: CC(C)[C@@H]1NC(=O)[C@H](Cc2ccc(O)cc2)NC(=O)[C@H](Cc2c[nH]c3ccccc23)NC(=O)[C@@H](NC(=O)[C@H](Cc2ccccc2)NC(=O)CN)CSSC[C@@H](C(=O)N[C@@H](CC(N)=O)C(N)=O)NC(=O)[C@H](CCCNC(=N)N)NC(=O)[C@H](CCCNC(=N)N)NC(=O)[C@H](Cc2ccc(O)cc2)NC(=O)[C@@H]2CSSC[C@H](NC1=O)C(=O)N1CCC[C@H]1C(=O)N[C@@H](Cc1c[nH]cn1)C(=O)N[C@H](Cc1ccccc1)C(=O)N[C@@H](Cc1c[nH]cn1)C(=O)N[C@@H](Cc1c[nH]c3ccccc13)C(=O)N2
B3: arenicin-3-like peptide 2 (peptide)
peptide: GFCWYVCVYPH[dF]HWVCYRRCN-NH2
modifications: disulfide 7-16, 3-20; N-terminus assumed
SMILES: CC(C)[C@@H]1NC(=O)[C@H](Cc2c[nH]c3ccccc23)NC(=O)[C@H](Cc2c[nH]cn2)NC(=O)[C@@H](Cc2ccccc2)NC(=O)[C@H](Cc2c[nH]cn2)NC(=O)[C@@H]2CCCN2C(=O)[C@H](Cc2ccc(O)cc2)NC(=O)[C@H](C(C)C)NC(=O)[C@@H]2CSSC[C@H](NC1=O)C(=O)N[C@@H](Cc1ccc(O)cc1)C(=O)N[C@@H](CCCNC(=N)N)C(=O)N[C@@H](CCCNC(=N)N)C(=O)N[C@H](C(=O)N[C@@H](CC(N)=O)C(N)=O)CSSC[C@H](NC(=O)[C@H](Cc1ccccc1)NC(=O)CN)C(=O)N[C@@H](Cc1c[nH]c3ccccc13)C(=O)N[C@@H](Cc1ccc(O)cc1)C(=O)N[C@@H](C(C)C)C(=O)N2

How the values were obtained:
[1] = biological target: human melanocortin 4 receptor with LgBit fused at the C-terminus (human) (UniProt P32245)
[2] = biological target: human melanocortin 4 receptor with C-terminally fused SmBit (human) (UniProt P32245)
[3] = biological target: mouse melanocortin 4 receptor fused to EGFP (mouse) (UniProt P56450)
[4] = biological target: mouse melanocortin 4 receptor fused to EGFP (mouse) (UniProt P56450); remark: listed apart in the source

Chain of mouse melanocortin 4 receptor fused to EGFP (mouse) (P56450 whole entry, the tested form may be a part): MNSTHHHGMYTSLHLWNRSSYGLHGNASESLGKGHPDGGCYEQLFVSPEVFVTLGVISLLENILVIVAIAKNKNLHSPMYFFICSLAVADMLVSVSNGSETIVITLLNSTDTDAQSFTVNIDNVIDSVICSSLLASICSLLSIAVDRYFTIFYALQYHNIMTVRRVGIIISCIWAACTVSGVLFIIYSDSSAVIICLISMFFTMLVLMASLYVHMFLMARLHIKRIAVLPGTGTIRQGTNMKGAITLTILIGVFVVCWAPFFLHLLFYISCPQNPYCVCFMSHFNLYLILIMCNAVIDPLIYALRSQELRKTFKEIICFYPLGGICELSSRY
Chain of human melanocortin 4 receptor with LgBit fused at the C-terminus (human) (P32245 whole entry, the tested form may be a part): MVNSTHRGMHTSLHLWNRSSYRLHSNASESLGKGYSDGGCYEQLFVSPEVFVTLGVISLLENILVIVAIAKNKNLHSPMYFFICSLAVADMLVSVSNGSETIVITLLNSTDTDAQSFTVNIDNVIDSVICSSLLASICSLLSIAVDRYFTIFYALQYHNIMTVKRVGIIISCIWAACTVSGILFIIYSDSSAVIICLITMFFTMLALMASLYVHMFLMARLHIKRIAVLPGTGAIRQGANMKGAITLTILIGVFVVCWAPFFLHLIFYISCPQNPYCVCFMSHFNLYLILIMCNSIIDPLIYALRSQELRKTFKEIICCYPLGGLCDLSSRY
Chain of human melanocortin 4 receptor with C-terminally fused SmBit (human) (P32245 whole entry, the tested form may be a part): as above

Molecule	coupling of Gαs-SmBit to MC4R-LgBit (nanoluciferase complementation, live cells): EC50 [1]	recruitment of β-arrestin-2-LgBit to MC4R-SmBit (nanoluciferase complementation, live cells): EC50 [2]	recruitment of β-arrestin-2-LgBit to MC4R-SmBit (nanoluciferase complementation, live cells): increase in efficacy (Emax) over α-MSH (% increase in efficacy compared to α-MSH) [2]	cAMP accumulation (Cisbio HTRF) in HEK293 cells transiently expressing mouse MC4R-EGFP: EC50 [3]	cAMP accumulation (Cisbio HTRF) in HEK293 cells transiently expressing mouse MC4R-EGFP: Emax (normalised to NDP-α-MSH) [3]	recruitment of β-arrestin-2-nanoluciferase to MC4R-EGFP (kinetic BRET, HEK293 cells), 10 μM peptide: BRET efficiency relative to NDP-α-MSH (100) [4]	coupling of Gαs-SmBit to MC4R-LgBit (nanoluciferase complementation, live cells): efficacy above that of α-MSH (% more efficacious than α-MSH) [1]
α-MSH (peptide)	1000 pM						
B1	193 pM	23.5 nM	99	3.7 nM	96%	> 130%	8.8
B2	702 pM	25.2 nM	82	1 nM	98%	> 130%	25
B3				18 nM	95%	> 130%	
